Measured values from the supplement of paper PMC10724198.
± gives the standard deviation of the averaged measurements.

tested on: Saccharomyces cerevisiae; assay: protein stability index of tFT-peptide fusion (C-terminal peptide) (PSI (0-1 scale)); higher = more stable (slower turnover); conditions: genetic background: wild type; temperature: 37 C
Method: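 MPS profiling in S. cerevisiae of the tFT-X12 degron library: putative degron peptides plus stable controls, 12 aa, fused to the C-terminus of a sfGFP-mCherry timer. Cells are FACS-sorted into 8 mCherry/sfGFP bins and deep-sequenced. PSI runs from 0 (unstable) to 1 (stable). Backgrounds are wild type, das1Δ and doa10Δ at 30 °C, and wild type, das1Δ, cdc34-1 and cdc53-1 at 37 °C; 2-3 technical replicates each.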
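Also: PSI is a weighted mean of sequencing reads over stability bins, variants kept only with over 10 reads, mCherry proximal and sfGFP distal, peptide attached via GGGS linker.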

Point of comparison: YVFSPLSCWASV, protein stability index 0.695 ± 0.019. Against it:
- GPPPPPSLLLLC — lower, 0.345 ± 0.02
- GVAVVWVGLGVT — lower, 0.4519 ± 0.0017
- LDVGGRRGGEHC — lower, 0.598 ± 0.011
- LFVLVLLCWMLT — lower, 0.434 ± 0.03
- LWGVGFLFVLVG — lower, 0.183 ± 0.014
- PHSMRTTTIMCS — lower, 0.436 ± 0.0045
- RPPPAANFTRSS — within error, 0.679 ± 0.012
- YGETRGGGRGRW — within error, 0.65 ± 0.11

tested on: Saccharomyces cerevisiae; assay: as above; conditions: genetic background: wild type; temperature: 30 C

Point of comparison: YLADPSPSIPIL, protein stability index 0.649 ± 0.02. Against it:
- ACGGGSNVHRAG — higher, 0.747 ± 0.012
- ACVRLVLCVCRV — lower, 0.339 ± 0.0039
- ACVWVVALVWVF — lower, 0.213 ± 0.016
- AEVLCEIVIALR — lower, 0.523 ± 0.043
- AFFFCVVVLFSF — lower, 0.182 ± 0.044
- AFFRCKCYVGTP — lower, 0.511 ± 0.057
- AFTFLLCWLFGV — lower, 0.467 ± 0.054
- AFVALCACVIFV — lower, 0.302 ± 0.025
- AGGVNWWSSWRV — higher, 0.7454 ± 0.006
- AGMLMCLYLFFV — lower, 0.468 ± 0.027
- AIMFLVLGYVFF — lower, 0.378 ± 0.034
- ALCPPLPMLVVA — lower, 0.2097 ± 0.00085
- ALLMVCFGFSLV — lower, 0.422 ± 0.01
- ALNFFSLFMLFR — lower, 0.398 ± 0.048
- ALSRFFSVFLLV — lower, 0.3814 ± 0.00064
- ASVCLNVIYQLV — lower, 0.268 ± 0.036
- AVLFAPPLSSNF — higher, 0.729 ± 0.052
- AVSFVTLSIMVM — lower, 0.195 ± 0.032
- AWVEVYVISIGV — lower, 0.19 ± 0.032
- CAGLLSVSFWLF — lower, 0.499 ± 0.0012
- CFATTCLRCKWV — lower, 0.484 ± 0.014
- CFCVSVHVWLLM — lower, 0.147 ± 0.04
- CFFLLLRVSLFP — lower, 0.239 ± 0.028
- CFSLLFYTLSLL — lower, 0.351 ± 0.018
- CFVICVCLCFGR — lower, 0.35 ± 0.025
- CGSLDLPHQCLL — higher, 0.744 ± 0.059
- CICAFCSLNLLC — lower, 0.435 ± 0.011
- CIHMNCSMMIIS — lower, 0.135 ± 0.0034
- CKGPPVKFIVLM — lower, 0.225 ± 0.057
- CKYCKCVVLLWS — lower, 0.434 ± 0.037
- CLFFLVYELSIL — lower, 0.317 ± 0.021
- CLQYRACLILLT — lower, 0.425 ± 0.0091
- CLSGPFRSLAVF — lower, 0.425 ± 0.038
- CMILVACFYLPS — lower, 0.321 ± 0.004
- CMYTILRHKINN — lower, 0.296 ± 0.054
- CPVSRHLLVLYW — lower, 0.432 ± 0.029
- CQVSEWIRYRFL — lower, 0.417 ± 0.02
- CRAAMYSFFLNF — lower, 0.427 ± 0.025
- WYGSYPLTLESY — lower, 0.613 ± 0.013
- WYMKFYNKKMKE — within error, 0.702 ± 0.04
- YALPPPPHPLSF — lower, 0.591 ± 0.018
- YASLPQSRPLSP — within error, 0.651 ± 0.013
- YCSIVRSLGSPL — within error, 0.698 ± 0.065
- YDLLLLLSLSRP — within error, 0.644 ± 0.012
- YFGGMGARGRER — higher, 0.687 ± 0.0081
- YFRYGLELVTFG — lower, 0.5004 ± 0.0013
- YFSSSPVFPPHL — within error, 0.667 ± 0.16
- YFWFSRGLSVFF — within error, 0.666 ± 0.0073
- YGEGSPPCMPEL — higher, 0.709 ± 0.017
- YGFFCFLPVFRG — within error, 0.661 ± 0.054
- YGKELRRCKWVF — lower, 0.581 ± 0.0072
- YGNSFLVRPPGD — within error, 0.712 ± 0.05
- YGVRCSRINRSG — within error, 0.678 ± 0.059
- YGVRGFKGYYGG — higher, 0.735 ± 0.0087
- YHECWRTFTLCV — lower, 0.532 ± 0.007
- YHSSHTGEFLFL — within error, 0.658 ± 0.053
- YIIVSQRENRRQ — within error, 0.758 ± 0.095
- YINQWLNVKHGD — within error, 0.635 ± 0.058
- YISLQKGVMNEL — higher, 0.728 ± 0.008
- YIVARMVRAVIP — higher, 0.741 ± 0.035
- YKGNVRNPTLHA — within error, 0.655 ± 0.05
- YKKKKEEKNKKN — lower, 0.583 ± 0.046
- YKKKKKKKNNKK — within error, 0.662 ± 0.043
- YKNKKKKKNNKK — within error, 0.661 ± 0.019
- YLDVWTGLSCQD — within error, 0.683 ± 0.11
- YLGRDYYVVLWG — higher, 0.7506 ± 0.0045
- YLPRHPLPPFPV — within error, 0.681 ± 0.14
- YLPWFADLHPGV — within error, 0.737 ± 0.073
- YLSFDKSLLSQI — within error, 0.662 ± 0.029
- YLSGHLGCRVRV — within error, 0.651 ± 0.067
- YLSVPVGPAMAL — within error, 0.643 ± 0.1
- YMAGGQCDRLPG — within error, 0.677 ± 0.055
- YNRQVDFECHKF — within error, 0.698 ± 0.044
- YNVRNVSVHQLG — within error, 0.644 ± 0.015
- YPALCSRFFAPS — higher, 0.711 ± 0.039
- YPGSCFLDTGIW — within error, 0.6666 ± 0.0062
- YPNENFALLTEH — within error, 0.653 ± 0.046
- YQGSFGLCRLML — higher, 0.808 ± 0.034
- YRARTADRPRDQ — higher, 0.729 ± 0.039
- YRIMRRKEKEER — within error, 0.669 ± 0.026
- YRLAPPPHPPPP — lower, 0.576 ± 0.021
- YRLVASSHLIFF — within error, 0.661 ± 0.027
- YRQAAIKNIKRK — higher, 0.683 ± 0.014
- YRQIIPSFTLGL — higher, 0.715 ± 0.036
- YRSPRSSSGSSF — within error, 0.67 ± 0.041
- YSDNIHIEFEDC — within error, 0.737 ± 0.068
- YSGYRASLVFEI — within error, 0.648 ± 0.099
- YSIIYATGMRIL — within error, 0.626 ± 0.07
- YSLETGIFVFHR — higher, 0.7027 ± 0.0068
- YSLPPAPQPLPP — higher, 0.772 ± 0.092
- YSPFGKRLLPPC — within error, 0.702 ± 0.057
- YSTFIPYSPCTA — within error, 0.644 ± 0.013
- YSVDGTGVGLWV — higher, 0.717 ± 0.016
- YSWGVLSWLSFG — within error, 0.648 ± 0.0074
- YTPEVSVFFFRT — lower, 0.6233 ± 0.0014
- YTSFGSSLIPTT — within error, 0.652 ± 0.074
- YTSPRSTGPSVG — higher, 0.732 ± 0.012
- YTTFNLSQTLNG — within error, 0.674 ± 0.023
- YTWVDKNDRTKR — within error, 0.736 ± 0.11
- YWEVYAGLSLWV — within error, 0.63 ± 0.0048
- YWGGWCGGWEIG — higher, 0.73 ± 0.034
- YYAFITERYRHN — lower, 0.6069 ± 0.0046
- YYCLRVRTINRR — higher, 0.703 ± 0.011
- YYLCHIEEFLSS — within error, 0.622 ± 0.072
- YYLPRPPRPTVL — within error, 0.623 ± 0.11
- YYSTQTQATYRH — higher, 0.6773 ± 0.0025
